# Experiment: yeast display, Sf9 membrane polyspecificity reagent, FACS + sequencing; frameworks hold sequencing errors
# Outline: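 Galactose induction of a Saccharomyces cerevisiae BJ5465 synthetic nanobody display library ran 36–48 hours. The cells were then stained for 1 hour at 4 °C with 10% biotinylated, detergent-solubilized Sf9 membrane reagent, pulled down on streptavidin microbeads and FACS-sorted into low and high (top ~1%) gates on expression and reagent-binding fluorescence. Labels for polyreactivity follow the gate of origin.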
row,Sequence,polyreactivity (PSR sort gate)
1,QVQLVESGGGLVQAGGSLRLSCAASGGIFGGNAMGWYRQAPGQERELVAAISRSSGSTYYADSVKGRFTISRDNAKNTVYLQMNSLKPEDSAVYYCNVEGYGRRFDYWGQGTQVTVSS,high polyreactivity
2,QVQLVESGGGLVQAGGSLRLSCAASGGIFGLYAMGWYRQAPGKERELVAAISWSGGSTYYADSVKGRFTISRDNAKNTVYLQMNSLKPEDTAVYYCAAEWDTNFWYDYWGQGTQVTVSS,low polyreactivity
3,QVQLVESGGGLVQAGGSLRLSCAASGGIFGLYTMGWYRQAPGKERELVAGISKRGTRTRYADSVKGRFTISRDHAKNTVYLQMNSLKPEDTAVYYCNADYYVSKLDYWGQGTQVTVSS,high polyreactivity
4,QVQLVESGGGLVQAGGSLRLSCAASGGIFGRYDMGWYRQAPGKERELVAAISKRGGSTYYADSVKGRFTISRDNAKNTVYLQMNSLKPEDTAVYYCNAAQSVELGYDYWGQGTQGTVSS,high polyreactivity
5,QVQLVESGGGLVQAGGSLRLSCAASGGIFGSYAMGWYRQAPGKERELVADITQSGGRTRYADSVKGRFTISRDNAKNTVYLQMNSLKPEDSAVYYCNAQDVDSGDDYDYWGQGTQVTVSS,low polyreactivity
6,QVQLVESGGGLVQAGGSLRLSCAASGGIFGYYAMGWYRQAPGKEREFVAAISVSGGSTYYADSVKGRFTISRDNAKNTVYLQMNSLKPEDTAVYYCAADVIVLRPGEYDYWGQGTQVTVSS,low polyreactivity
7,QVQLVESGGGLVQAGGSLRLSCAASGGIFGYYAMGWYRQAPGTEREFVAAITARGGRTYYADSVKGRFTISRDNAKNTVYLQMNSLKPEDTAVYDCAAYSPVWGRYYHRVERDYWGQGTQVTVSS,high polyreactivity
8,QVQLVESGGGLVQAGGSLRLSCAASGGIFGYYVMGRYRQAPGKERELVAVITRGGSTNYADSVKGRFTISRDNAKNTVYLQMNSLKPEDTAVYYCAKDVPYRRVRSEYWGQGTQVTVSS,low polyreactivity
9,QVQLVESGGGLVQAGGSLRLSCAASGGIFGYYVMGWYRQAPGKERELVAVITRGGSTNYADSLKGRFTISRDNAKNTVYLQMNSLKPEDTAVYYCNAGPAGYYDYDYWGQGTQVTVSS,low polyreactivity
10,QVQLVESGGGLVQAGGSLRLSCAASGGIFHNYAMGWYRQAPGKERELVAAITTSDGSTYYEDSVKGRFTISRDIAKNTVYLEMNSLKPEDTAVYYCNAEYLYTVYFDDGGFIMDYWGQGTQVTVSS,low polyreactivity
11,QVQLVESGGGLVQAGGSLRLSCAASGGIFIGYAMGWYRPAPGKERELVARIRSSGGTTYYADSVKGRFTISRDNAKNTVYLQMNSLKPEDTAVYYCAKRTSSSWAYGPYYYWGQGTQVTVSS,high polyreactivity
12,QVQLVESGGGLVQAGGSLRLSCAASGGIFLPYAMGWYRQAPGKERELVAGITTSGGSTYYADSVKGRFTISRDNAKNTVYLQMNSLKPEDTAVYYCAKKSSLFKHVVRYDYWGQGTQVTVSS,low polyreactivity
13,QVQLVESGGGLVQAGGSLRLSCAASGGIFNINAMGWYRQAPGKERELVAGINWSDTGTYYADSVKGRFTISRDNAKNTVYLQMNSLKPEDTAVYDCAVSGYPVYITYVSYDYDYWGQGTQVTVSS,low polyreactivity
14,QVQLVESGGGLVQAGGSLRLSCAASGGIFNVNAMGWYRQAPWKERELVAAIDWSSSSTDYADSVKGRFTISRDNAKNTVYLQMNSLKPEDTAVYYCAKLAGYSPTFEYWGQGTQVTVSS,low polyreactivity
15,QVQLVESGGGLVQAGGSLRLSCAASGGIFPAYAMGWYRQAPGKERELVASISANGGRTYYADSVKGRFTISRDNAKNTVYLQMNSLKPEDTAVYYCNASSRSGSWRFYYWGQGTQVTVSS,high polyreactivity
16,QVQLVESGGGLVQAGGSLRLSCAASGGIFPGYAMGWYRQAPGKERELVAAISGSGSSTYYADSVKGRFTISRDNAKNTVYLQMNSLKPEDTAVYYCAVYYTRGYDYWGQGTQVTVSS,high polyreactivity

row,Sequence,polyreactivity (PSR sort gate)
1,QVQLVESGGGLVQAGGSLRLSCAASGGIFPVYAMGWSRQAPGKERELVATITSDGDTNYADSVKGRFTISRDNAKNTVYLQMNSLKPEDTAVYYCNKDLDYIIVQPHSPELEYWGQGTQVTVSS,low polyreactivity
2,QVQLVESGGGLVQAGGSLRLSCAASGGIFPWNAMGWYRQAPGKERELVAAIDNTDGTHYADSVKGRFTISRDNAKNTVYLQMNSQKPEDTAVYYCAAEYYYFVYPFYNWGYEYWGQGTQVTVSS,high polyreactivity
3,QVQLVESGGGLVQAGGSLRLSCAASGGIFQLNAMGWYSQAPGKERELVAAISGSGGSTYYADSVKGRFTISRDNAKNTVYLQMNSLKPEDTAVYYCAVRLTITDYDYWGQGTQVTVSS,low polyreactivity
4,QVQLVESGGGLVQAGGSLRLSCAASGGIFRRYPMGWYRQATGKERELVAAISKRGGSTYYADSVKGRFTISRDNAKNTVYLQMNSLKPEDTAFYYCAKQRGGQPRSSTYYYWGQGTQVTVSS,high polyreactivity
5,QVQLVESGGGLVQAGGSLRLSCAASGGIFRVYAMGWYRQAPGKERELVAAISRSGSSTYYADSVKGRFTISRDNAKNTVYLQMNSLKPEDTAVYYCNAYSQYWLGNNYWGQGSQVTVSS,high polyreactivity
6,QVQLVESGGGLVQAGGSLRLSCAASGGIFRYYAMGLYRQAPGKERELVASIRRSGGRTYYADSVKGRFTISRDNAKYTVYFQMNSLKPEDTAVYYCNADRLIVTMNSWGQGTQVTVSS,low polyreactivity
7,QVQLVESGGGLVQAGGSLRLSCAASGGIFRYYAMGWYRQAPGKERELVAAISRSTRTYYADSVKGRFTISRDNAKITVYLQMNSLKPEDTEVYYCAAKYVSRRYSRYNYWGQGTQVSVSS,high polyreactivity
8,QVQLVESGGGLVQAGGSLRLSCAASGGIFSAYDMGWYRQAPGTERELVAAINSGGSTNYADSVKGRFTISRDNAKNTVYLQMNSLKPEDTAVYYCAAAKVSWFGLKYYYWGQGTQVTVSS,high polyreactivity
9,QVQLVESGGGLVQAGGSLRLSCAASGGIFSAYSMGWYRKAPGKERELVASITTDGGITYYADSVKGRFTISRDNAKNTVYLQMNSLKPEDTAVYYCAVLQYYYPYYYWGQGTQVTVSS,low polyreactivity
10,QVQLVESGGGLVQAGGSLRLSCAASGGIFSGNDMGWYRQAPGKERELVATITSDGSTNYSDSVKGRFTYSRDNAKNTVYLQMNSLKPEDTAVYYCAADGLYWWMYYWGQGTQVTVSS,low polyreactivity
11,QVQLVESGGGLVQAGGSLRLSCAASGGIFSRYAMGWYRQAPGKEREFVAAISFSGASTYYADSVKGRFTISRDNAKYTVYLQMNSLKPEDTAVYYCAAYWDAEGRRYTRLDYWGQGTQVTVSS,low polyreactivity
12,QVQLVESGGGLVQAGGSLRLSCAASGGIFSTYTMGWSRQAPGKERELVAAITTGNSTYYADSVKGRFTISRDNAKNTVYLQMNSLKPEDTAVYYCAAFAASRDYYRRLIHDGYDYWGQGTQVTVSS,low polyreactivity
13,QVQLVESGGGLVQAGGSLRLSCAASGGIFSYAMGWSRQAPGKERELVADINSDGSTTYADSVKGRFTISRDNAKNTVYLQMNSLKPEDTAVYYCAVDVSVNWPLLERYEYWGQGTQVTVSS,low polyreactivity
14,QVQLVESGGGLVQAGGSLRLSCAASGGIFSYAMGWYRQAPGKERELVAAISRSAGITYYADSVKGRFTISRDNAKNTVYLQMNSLKPEDTAVYYCAASYYSYLYYSWGQGTQVTVSS,high polyreactivity
15,QVQLVESGGGLVQAGGSLRLSCAASGGIFSYNDMGWYRQAPGKERELVAAISSGGGGITYYADSVKGRFTISRDNAKNTVYLQMNSLKPEDTAVYYCNVVPDFRAAYSSQYYYWGQGTQVTVSS,low polyreactivity
16,QVQLVESGGGLVQAGGSLRLSCAASGGIFSYYAMGWYRQAHGKERELVAAISGSGGRTYYADSVKGRFTISRDNAKNTVYLQMNSLKPEDTAVYYCAADSLSYSWEYYYWGQGTQVTVSS,high polyreactivity

# Reference: the nanobody polyreactivity screen of Harvey et al. (2022)
